Assay results published in patent US20250304677A1 (VIB VZW, published 2025).

Key:
[1] = target: T1, human folate receptor alpha (hFRα), recombinant protein (human, UniProt P15328 25-233); assay: BLI, biotinylated FOLR1 on streptavidin biosensors
T1 construct: Bought recombinant proteins (His-tagged, or biotinylated via Avi-tag, e.g. AcroBiosystems FO1-H82E2, F01-H52H1); also called hFOLR1; huFOLR1
Description: (§1) The off-rates of the 2HFO9 ^{∘}FIG. 5A) and 2MFR67 ^{∘}FIG. 5B) mutants and the three wild-type ^{∘}WT) VHHs from family 3 were determined by biolayer interferometry ^{∘}BLI) on both mouse and human biotinylated folate receptor alpha ^{∘}FOLR1) that was immobilized on streptavidin biosensors. The off-rates were calculated using a 1:1 binding model. The fold change compared to the off-rates of the corresponding WT VHH is represented as the WT VHH off-rate divided by the off-rate of the mutant for the VHHs that show an improved off-rate compared to the WT. For the VHHs that show a worse off-rate compared to the WT, the fold change is represented as the negative value of the mutant VHH off-rate divided by the WT off-rate. The red bars represent the WT 2HFO9 and 2MFR67 in the upper and lower panel respectively.

[2] = target: T2, mouse folate receptor alpha (mFRα), recombinant protein (mouse, UniProt P35846 25-232); assay: BLI, biotinylated FOLR1 on streptavidin biosensors
T2 construct: Bought recombinant proteins (e.g. biotinylated, Acro Biosystems FO1-M82E9); also called mFOLR1; Ms FOLR1
Description: as §1

[3] = target: T2, mouse folate receptor alpha (mFRα), …; assay: method of this value not stated (ELISA, BLI and FACS named)
[4] = target: T2, mouse folate receptor alpha (mFRα), …; assay: ELISA, periplasmic extract
Source text: (§2) From the lymphocytes of each llama a separate VHH library was constructed to select and screen for the presence of antigen-specific VHHs. To this end, total RNA from peripheral blood lymphocytes was used as template for first strand cDNA synthesis with an oligo ^{∘}dT) primer. Using this cDNA, the VHH encoding sequences were amplified by PCR, digested with PstI and NotI, cloned into the PstI and NotI sites of the phagemid vector pMECS and transformed into E. coli to generate VHH libraries. To enrich these libraries for FRα ^{∘}or FOLR1, as used interchangeably herein)-specific VHHs, a combinatorial panning approach on recombinant human and mouse FOLR1 was used followed by random selection and screening of clones by ELISA for the presence of antigen-specific VHHs in their periplasmic extracts ^{∘}PEs). In order to gauge the cross-reactivity for human and mouse FOLR1, each clone was tested on both antigens.
(§3) After panning of core76/77 on human and mouse folate receptor alpha ^{∘}FRα), […] were randomly selected from the second and third rounds and analyzed by ELISA on both human and mouse FRα for the presence of FRα-specific VHHs in their periplasmic extracts ^{∘}PE). This led to the identification of 98 hits. For these 98 hits, the off-rate ^{∘}koff) in the PE was determined by biolayer interferometry ^{∘}BLI) on both mouse and human FRα that was directly immobilized onto AR2G biosensors. The off-rates were calculated using a 1:1 binding model. […] Abbreviations: SE: standard error.

[5] = target: T2, mouse folate receptor alpha (mFRα), …; assay: BLI, FRα on AR2G biosensors, 1:1 model
Description: As a next step, the kinetic binding constants were determined using BLI ^{∘}Table 3). […] Similar to the ELISA results ^{∘}FIG. 1A-B), higher binding affinities were measured for mouse FRα than human FRα, with KD values […] one order of magnitude in most cases. […] For 3HFO28, binding to human FRα could not be confirmed by BLI, and this VHH was excluded from further characterization.
The kinetic parameters were calculated using a 1:1 binding model.

[6] = target: T3, human folate receptor beta (FRβ) (human, UniProt P14207 17-230, limits assumed); assay: method not named (follows the ELISA of Example 3)
T3 construct: also called hFOLR2; human FOLR2

[7] = target: T2, mouse folate receptor alpha (mFRα), …; assay: BLI, periplasmic extract, FRα on AR2G biosensors
Description: as §3

[8] = target: T2, mouse folate receptor alpha (mFRα), …; assay: ELISA on recombinant mouse FOLR1, cMyc tag detection, normalised binding, non-linear fit
Description: (§4) Data were normalized and technical replicates were plotted as mean±SD. Data were fitted by non-linear regression and the half-maximal effective concentration ^{∘}EC50) was calculated using GraphPad Prism 9 software. ^{∘}FIG. 1C and FIG. 1D) Binding affinity determination of anti-FOLR1 VHHs for native FOLR1. Mouse ^{∘}FIG. 1C) or human FOLR1 FIG. 1D) was overexpressed on HEK293T cells and binding of the anti-FOLR1 VHHs was assessed using flow cytometry. The mean fluorescence intensity ^{∘}MFI) of the phycoerythrin signal was plotted for each VHH concentration. Data were fitted by non-linear regression using GraphPad Prism 9 software. ^{∘}FIG. 1E) Determination of the competition of representative family members with folic acid ^{∘}FA) using ELISA. Mouse FOLR1 was coated on the plate and was pre-incubated with or without 100 μM FA before adding the VHHs. Data were fitted by non-linear regression using GraphPad Prism 9 software.
(§5) In a first step, binding affinity and cross-reactivity of the purified VHHs to human and mouse FRα was assessed by ELISA, using detection of the cMyc tag ^{∘}FIG. 1A-B). […] 2HFO19 ^{∘}family 1) was the best binder of all tested VHHs to both mouse and human FRα with an EC₅₀ of 0.1 nM and 0.4 nM respectively ^{∘}FIG. 1A-B).

[9] = target: T1, human folate receptor alpha (hFRα), …; assay: ELISA on recombinant human FOLR1, cMyc tag detection, normalised binding, non-linear fit
Description: as §4, §5

[10] = target: T1, human folate receptor alpha (hFRα), …; assay: BLI, periplasmic extract, FRα on AR2G biosensors; unpurified periplasmic extract, BLI off-rate screen
Description: as §3

[11] = target: T1, human folate receptor alpha (hFRα), …; assay: ELISA, periplasmic extract; unpurified periplasmic extract, PE-ELISA (ratio of coated to uncoated well)
Source text: as §2, with “In order to gauge the cross-reactivity for human and mouse FOLR1, each clone was tested on both antigens.” left out
After panning of core76/77 on human and mouse folate receptor alpha ^{∘}FRα), 95 colonies were randomly selected from the second and third rounds and analyzed by ELISA on both human and mouse FRα for the presence of FRα-specific VHHs in their periplasmic extracts ^{∘}PE). […] For these 98 hits, the off-rate ^{∘}koff) in the PE was determined by biolayer interferometry ^{∘}BLI) on both mouse and human FRα that was directly immobilized onto AR2G biosensors. The off-rates were calculated using a 1:1 binding model. […]

T1 sequence (P15328 25-233 limits assumed): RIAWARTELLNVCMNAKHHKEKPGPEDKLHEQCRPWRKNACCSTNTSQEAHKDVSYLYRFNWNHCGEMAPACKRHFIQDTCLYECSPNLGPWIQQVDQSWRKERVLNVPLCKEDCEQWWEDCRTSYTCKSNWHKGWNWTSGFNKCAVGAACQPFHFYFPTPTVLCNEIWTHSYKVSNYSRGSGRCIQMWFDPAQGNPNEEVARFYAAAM
T2 sequence (P35846 25-232 limits assumed): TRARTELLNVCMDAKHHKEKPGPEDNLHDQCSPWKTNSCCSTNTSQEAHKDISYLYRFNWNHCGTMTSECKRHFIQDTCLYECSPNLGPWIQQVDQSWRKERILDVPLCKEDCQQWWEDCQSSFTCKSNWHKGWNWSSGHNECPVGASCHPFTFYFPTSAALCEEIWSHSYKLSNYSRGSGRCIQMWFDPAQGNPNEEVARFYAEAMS
T3 sequence (P14207 17-230 limits assumed): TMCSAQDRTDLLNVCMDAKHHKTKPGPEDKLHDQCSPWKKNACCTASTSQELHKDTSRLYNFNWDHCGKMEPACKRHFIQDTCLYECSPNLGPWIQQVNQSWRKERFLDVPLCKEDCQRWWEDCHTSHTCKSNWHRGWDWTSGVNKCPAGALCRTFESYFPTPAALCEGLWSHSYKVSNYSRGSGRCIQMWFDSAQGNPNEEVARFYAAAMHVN

Fold hu/ms (koff) [1]	koff [1]	Fold to 2HF042 (koff) [2]	koff [2]	Kd [3]	PE-ELISA (ratio to uncoated well) [4]	Kd [5]	koff [5]	kon [5]	binding result [6]	koff [7]	EC50 [8]	EC50 [9]	koff [10]	PE-ELISA (ratio to uncoated well) [11]	Binder
7	0.0154 s⁻¹	1	0.00222 s⁻¹	23.3 nM											2HFO42-NT (2HFO42 fused to neurotensin) (VHH) VHH: QVQLQESGGGLVQAGGSLRLSCAASGSGFSGMIMGWYRQVPGKQRELVATVTSHGTTNYADSVKGRFTISRDNAKNTVLLQMNSLKPEDTAVYYCNAHFPGIYWGKGTQVTVSS
					34.9	12.6 nM	0.00582 s⁻¹	464000 M⁻¹ s⁻¹	no binding	0.00425 s⁻¹	84.3 nM	1.5 nM	0.00827 s⁻¹	35.6	VHH 3HFO28 (family 7) (VHH) VHH: QVQLQESGGGLVQPGGSLRLSCAASGSTLDRYEIGWFRQAPGKGRERVSCISTTSSTYEDSVKGRFTISRDNAKNTVYLQMNSLKPEDTAVYYCATVRVAWSTCFPTGDSWGKGTQVTVSS
